Target: GST-BRCT
Assay: cell-based or functional assay

B1: GST-tagged TFII-I (wild type) (natural protein, UniProt P78347-2 1-957, looked up)
chain: MAQVAMSTLPVEDEESSESRMVVTFLMSALESMCKELAKSKAEVACIAVYETDVFVVGTERGRAFVNTRKDFQKDFVKYCVEEEEKAAEMHKMKSTTQANRMSVDAVEIETLRKTVEDYFCFCYGKALGKSTVVPVPYEKMLRDQSAVVVQGLPEGVAFKHPENYDLATLKWILENKAGISFIIKRPFLEPKKHVGGRVMVTDADRSILSPGGSCGPIKVKTEPTEDSGISLEMAAVTVKEESEDPDYYQYNIQGSHHSSEGNEGTEMEVPAEDDDYSPPSKRPKANELPQPPVPEPANAGKRKVREFNFEKWNARITDLRKQVEELFERKYAQAIKAKGPVTIPYPLFQSHVEDLYVEGLPEGIPFRRPSTYGIPRLERILLAKERIRFVIKKHELLNSTREDLQLDKPASGVKEEWYARITKLRKMVDQLFCKKFAEALGSTEAKAVPYQKFEAHPNDLYVEGLPENIPFRSPSWYGIPRLEKIIQVGNRIKFVIKRPELLTHSTTEVTQPRTNTPVKEDWNVRITKLRKQVEEIFNLKFAQALGLTEAVKVPYPVFESNPEFLYVEGLPEGIPFRSPTWFGIPRLERIVRGSNKIKFVVKKPELVISYLPPGMASKINTKALQSPKRPRSPGSNSKVPEIEVTVEGPNNNNPQTSAVRTPTQTNGSNVPFKPRGREFSFEAWNAKITDLKQKVENLFNEKCGEALGLKQAVKVPFALFESFPEDFYVEGLPEGVPFRRPSTFGIPRLEKILRNKAKIKFIIKKPEMFETAIKESTSSKSPPRKINSSPNVNTTASGVEDLNIIQVTIPDDDNERLSKVEKARQLREQVNDLFSRKFGEAIGMGFPVKVPYRKITINPGCVVVDGMPPGVSFKAPSYLEISSMRRILDSAEFIKFTVIRPFPGLVINNQLVDQSESEGPVIQESAEPSQLEVPATEEIKETDGSSQIKQEPDPTW
luciferase activity of 17M8-AdMLP-luc driven by GAL4-BRCT (GAL-BRCT) in COS7 cells, with TFII-I expressed: ≤ 2 fold
